B1: ICT01 (antibody, V domains shown)
VH: QVQLVQSGAEVKKPGASVKLSCKASGYIFTRYYMYWVKQRPGQGLEWIGEINPNNGGTKFNEKFKNRATLTVDKSISTAYMELSRLRSDDTAVYYCSREDDYDGTPFAMDYWGQGTLVTVSS
VL: DIQMTQSPSSLSASVGDRVTITCHASQNINVWLSWYQQKPGKAPKLLIYKASNLHTGVPSRFTGSGSGTDFTFTISSLQPEDIATYYCQQGQTYPYTFGQGTKLEIK
B2: bsAb010 (bispecific antibody)
heavy: QVQLVQSGAEVKKPGASVKLSCKASGYIFTRYYMYWVKQRPGQGLEWIGEINPNNGGTKFNEKFKNRATLTVDKSISTAYMELSRLRSDDTAVYYCSREDDYDGTPFAMDYWGQGTLVTVSSASTKGPSVFPLAPSSKSTSGGTAALGCLVKDYFPEPVTVSWNSGALTSGVHTFPAVLQSSGLYSLSSVVTVPSSSLGTQTYICNVNHKPSNTKVDKRVEPKSCDKTHTCPPCPAPEFEGGPSVFLFPPKPKDTLMISRTPEVTCVVVDVSHEDPEVKFNWYVDGVEVHNAKTKPREEQYNSTYRVVSVLTVLHQDWLNGKEYKCKVSNKALPASIEKTISKAKGQPREPQVYTLPPSREEMTKNQVSLTCLVKGFYPSDIAVEWESNGQPENNYKTTPPVLDSDGSFFLYSKLTVDKSRWQQGNVFSCSVMHEALHNHYTQKSLSLSPG
light: not shown
B3: bsAb014 (bispecific antibody)
heavy: QVQLVQSGAEVKKPGASVKLSCKASGYIFTRYYMYWVKQRPGQGLEWIGEINPNNGGTKFNEKFKNRATLTVDKSISTAYMELSRLRSDDTAVYYCSREDDYDGTPFAMDYWGQGTLVTVSSASTKGPSVFPLAPSSKSTSGGTAALGCLVKDYFPEPVTVSWNSGALTSGVHTFPAVLQSSGLYSLSSVVTVPSSSLGTQTYICNVNHKPSNTKVDKRVEPKSCDKTHTCPPCPAPEFEGGPSVFLFPPKPKDTLMISRTPEVTCVVVDVSHEDPEVKFNWYVDGVEVHNAKTKPREEQYNSTYRVVSVLTVLHQDWLNGKEYKCKVSNKALPASIEKTISKAKGQPREPQVYTLPPSREEMTKNQVSLTCLVKGFYPSDIAVEWESNGQPENNYKTTPPVLDSDGSFFLYSKLTVDKSRWQQGNVFSCSVMHEALHNHYTQKSLSLSPG
light: not shown
B4: bsAb054 (bispecific antibody, not shown: small tags and cut ends)
heavy (part 1 of 2): EVQLVESGGGLVQPGGSLRLSCAASGFTFSRYWMSWVRQAPGKGLEWVANIKQDGSEKYYVDSVKGRFTISRDNAKNSLYLQMNSLRAEDTAVYYCAREGGWFGELAFDYWGQGTLVTVSS
heavy (part 2 of 2): GGGGSGGGGSGGGGSGGGGSQVQLVQSGAEVKKPGASVKLSCKASGYIFTRYYMYWVKQRPGQGLEWIGEINPNNGGTKFNEKFKNRATLTVDKSISTAYMELSRLRSDDTAVYYCSREDDYDGTPFAMDYWGQGTLVTVSSGGGGSGGGGSGGGGSGGGGSDIQMTQSPSSLSASVGDRVTITCHASQNINVWLSWYQQKPGKAPKLLIYKASNLHTGVPSRFTGSGSGTDFTFTISSLQPEDIATYYCQQGQTYPYTFGQGTKLEIK
heavy: EVQLVESGGGLVQPGGSLRLSCAASGFTFSRYWMSWVRQAPGKGLEWVANIKQDGSEKYYVDSVKGRFTISRDNAKNSLYLQMNSLRAEDTAVYYCAREGGWFGELAFDYWGQGTLVTVSS
light: EIVLTQSPGTLSLSPGERATLSCRASQRVSSSYLAWYQQKPGQAPRLLIYDASSRATGIPDRFSGSGSGTDFTLTISRLEPEDFAVYYCQQYGSLPWTFGQGTKVEIKRTVAAPSVFIFPPSDEQLKSGTASVVCLLNNFYPREAKVQWKVDNALQSGNSQESVTEQDSKDSTYSLSSTLTLSKADYEKHKVYACEVTHQGLSSPVTKSFNRGEC
B5: bsAb070 (bispecific antibody, not shown: small tags and cut ends; a dimerising Fc or GST)
heavy 1: EVQLVESGGGLVQPGGSLRLSCAASGFTFSRYWMSWVRQAPGKGLEWVANIKQDGSEKYYVDSVKGRFTISRDNAKNSLYLQMNSLRAEDTAVYYCAREGGWFGELAFDYWGQGTLVTVSS
heavy 2: QVQLVQSGAEVKKPGASVKLSCKASGYIFTRYYMYWVKQRPGQGLEWIGEINPNNGGTKFNEKFKNRATLTVDKSISTAYMELSRLRSDDTAVYYCSREDDYDGTPFAMDYWGQGTLVTVSSGGGGSGGGGSGGGGSGGGGSDIQMTQSPSSLSASVGDRVTITCHASQNINVWLSWYQQKPGKAPKLLIYKASNLHTGVPSRFTGSGSGTDFTFTISSLQPEDIATYYCQQGQTYPYTFGQGTKLEIKGGGGSGGGGSGGGGSGGGGS
light: EIVLTQSPGTLSLSPGERATLSCRASQRVSSSYLAWYQQKPGQAPRLLIYDASSRATGIPDRFSGSGSGTDFTLTISRLEPEDFAVYYCQQYGSLPWTFGQGTKVEIKRTVAAPSVFIFPPSDEQLKSGTASVVCLLNNFYPREAKVQWKVDNALQSGNSQESVTEQDSKDSTYSLSSTLTLSKADYEKHKVYACEVTHQGLSSPVTKSFNRGECGGGGSGGGGSGGGGSGGGGSDIQMTQSPSSLSASVGDRVTITCHASQNINVWLSWYQQKPGKAPKLLIYKASNLHTGVPSRFTGSGSGTDFTFTISSLQPEDIATYYCQQGQTYPYTFGQGTKLEIKGGGGSGGGGSGGGGSGGGGSQVQLVQSGAEVKKPGASVKLSCKASGYIFTRYYMYWVKQRPGQGLEWIGEINPNNGGTKFNEKFKNRATLTVDKSISTAYMELSRLRSDDTAVYYCSREDDYDGTPFAMDYWGQGTLVTVSS
B6: bsAb069 (bispecific antibody, not shown: small tags and cut ends; a dimerising Fc or GST)
heavy 1: EVQLVESGGGLVQPGGSLRLSCAASGFTFSRYWMSWVRQAPGKGLEWVANIKQDGSEKYYVDSVKGRFTISRDNAKNSLYLQMNSLRAEDTAVYYCAREGGWFGELAFDYWGQGTLVTVSS
heavy 2: DIQMTQSPSSLSASVGDRVTITCHASQNINVWLSWYQQKPGKAPKLLIYKASNLHTGVPSRFTGSGSGTDFTFTISSLQPEDIATYYCQQGQTYPYTFGQGTKLEIKGGGGSGGGGSGGGGSGGGGSQVQLVQSGAEVKKPGASVKLSCKASGYIFTRYYMYWVKQRPGQGLEWIGEINPNNGGTKFNEKFKNRATLTVDKSISTAYMELSRLRSDDTAVYYCSREDDYDGTPFAMDYWGQGTLVTVSSGGGGSGGGGSGGGGSGGGGS
light: EIVLTQSPGTLSLSPGERATLSCRASQRVSSSYLAWYQQKPGQAPRLLIYDASSRATGIPDRFSGSGSGTDFTLTISRLEPEDFAVYYCQQYGSLPWTFGQGTKVEIKRTVAAPSVFIFPPSDEQLKSGTASVVCLLNNFYPREAKVQWKVDNALQSGNSQESVTEQDSKDSTYSLSSTLTLSKADYEKHKVYACEVTHQGLSSPVTKSFNRGECGGGGSGGGGSGGGGSGGGGSQVQLVQSGAEVKKPGASVKLSCKASGYIFTRYYMYWVKQRPGQGLEWIGEINPNNGGTKFNEKFKNRATLTVDKSISTAYMELSRLRSDDTAVYYCSREDDYDGTPFAMDYWGQGTLVTVSSGGGGSGGGGSGGGGSGGGGSDIQMTQSPSSLSASVGDRVTITCHASQNINVWLSWYQQKPGKAPKLLIYKASNLHTGVPSRFTGSGSGTDFTFTISSLQPEDIATYYCQQGQTYPYTFGQGTKLEIK

These results are taken from patent US20260265379A1.

Sequence of BTN3A expressed at the cell surface (human), O00481 (O00481 30-513): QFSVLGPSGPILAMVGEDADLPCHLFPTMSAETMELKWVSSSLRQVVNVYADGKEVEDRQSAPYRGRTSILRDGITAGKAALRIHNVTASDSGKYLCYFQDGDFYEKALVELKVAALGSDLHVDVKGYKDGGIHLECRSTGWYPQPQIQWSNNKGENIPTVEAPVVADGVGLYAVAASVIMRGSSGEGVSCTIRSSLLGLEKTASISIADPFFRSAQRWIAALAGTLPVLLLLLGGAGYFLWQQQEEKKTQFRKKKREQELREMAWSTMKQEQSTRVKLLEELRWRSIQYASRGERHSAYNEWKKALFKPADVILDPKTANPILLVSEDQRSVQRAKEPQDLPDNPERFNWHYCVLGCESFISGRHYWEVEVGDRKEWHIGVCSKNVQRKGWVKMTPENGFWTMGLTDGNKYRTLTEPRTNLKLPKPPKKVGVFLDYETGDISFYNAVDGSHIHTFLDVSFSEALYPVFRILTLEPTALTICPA

The test addresses BTN3A expressed at the cell surface (human), O00481. Kind of test: cell-based or functional assay.
B1: the Jurkat-Vy9Vo2 TCR MOP activation at 0.5 nM (fold-change to medium) worked out at 12.5; the Jurkat-Vy9Vo2 TCR MOP activation at 5 nM (fold-change to medium) is 11.7; the dose at which Jurkat-Vγ9Vδ2 TCR MOP activation was evident came out at 0.05 nM; the increase in CD107ab expression on Vγ9Vδ2 T cells co-cultured with SKOV3 cells, 0.1 nM is 1.9 fold.
As for B2, the Jurkat-Vy9Vo2 TCR MOP activation at 0.5 nM (fold-change to medium) stood at 5.3 and the Jurkat-Vy9Vo2 TCR MOP activation at 5 nM (fold-change to medium) was determined as 4.8.
Molecule B3 returned a Jurkat-Vy9Vo2 TCR MOP activation at 0.5 nM (fold-change to medium) of 6.4 and a Jurkat-Vy9Vo2 TCR MOP activation at 5 nM (fold-change to medium) of 4.6.
For B4, in that order: 2.8 and 1.
For B5, in that order: 1.5 and 1.3.
The corresponding values for B6 are 2.4 and 3.8.
